Measured values: paper PMC2802489

Key:
Experiment in all cases: purified protein
[1] = system: CC(C)C=O; settings: 0.25 mM NADH, 50 mM MOPS pH 7.0, 37 °C, 100 nM enzyme
[2] = system: CC=O; settings: 0.25 mM NADH, 50 mM MOPS pH 7.0, 37 °C, 100 nM enzyme
[3] = substrate: CC=O; format: biochemical, Escherichia coli; settings: 0.25 mM NADPH, 50 mM MOPS pH 7.0, 37 °C, 100 nM enzyme
[4] = substrate: CC(C)C=O; format: biochemical, Escherichia coli; settings: 0.25 mM NADPH, 50 mM MOPS pH 7.0, 37 °C, 100 nM enzyme
[5] = substrate: CC=O; format: biochemical, Saccharomyces cerevisiae; settings: 0.25 mM NADH, 50 mM MOPS pH 7.0, 37 °C, 100 nM enzyme

AdhA (Lactococcus lactis subsp. lactis Il1403)
Km [1]: 9100 ± 2900 µM | kcat [1]: 6.6 ± 0.2 s⁻¹ | kcat/Km [1]: 800 M⁻¹ s⁻¹ | Km [2]: 500 ± 200 µM | kcat [2]: 10 ± 0.3 s⁻¹ | kcat/Km [2]: 20900 M⁻¹ s⁻¹

B1: YqhD (Escherichia coli K-12) (protein)
chain: NNFNLHTPTRILFGKGAIAGLREQIPHDARVLITYGGGSVKKTGVLDQVLDALKGMDVLEFGGIEPNPAYETLMNAVKLVREQKVTFLLAVGGGSVLDGTKFIAAAANYPENIDPWHILQTGGKEIKSAIPMGCVLTLPATGSESNAGAVISRKTTGDKQAFHSAHVQPVFAVLDPVYTYTLPPRQVANGVVDAFVHTVEQYVTKPVDAKIQDRFAEGILLTLIEDGPKALKEPENYDVRANVMWAATQALNGLIGAGVPQDWATHMLGHELTAMHGLDHAQTLAIVLPALWNEKRDTKRAKLLQYAERVWNITEGSDDERIDAAIAATRNFFEQLGVPTHLSDYGLDGSSIPALLKKLEEHGMTQLGENHDITLDVSRRIYEAAR
Km [3]: 27600 ± 12400 µM | kcat [3]: 1.1 ± 0.1 s⁻¹ | kcat/Km [3]: 50 M⁻¹ s⁻¹ | Km [4]: 1800 ± 1300 µM | kcat [4]: 1 ± 0.1 s⁻¹

B2: Adh2 (Saccharomyces cerevisiae S288C) (protein)
chain: SIPETQKAIIFYESNGKLEHKDIPVPKPKPNELLINVKYSGVCHTDLHAWHGDWPLPTKLPLVGGHEGAGVVVGMGENVKGWKIGDYAGIKWLNGSCMACEYCELGNESNCPHADLSGYTHDGSFQEYATADAVQAAHIPQGTDLAEVAPILCAGITVYKALKSANLRAGHWAAISGAAGGLGSLAVQYAKAMGYRVLGIDGGPGKEELFTSLGGEVFIDFTKEKDIVSAVVKATNGGAHGIINVSVSEAAIEASTRYCRANGTVVLVGLPAGAKCSSDVFNHVVKSISIVGSYVGNRADTREALDFFARGLVKSPIKVVGLSSLPEIYEKMEKGQIAGRYVVDTSK
Km [5]: 140 ± 20 µM | kcat [5]: 6.6 ± 0.5 s⁻¹ | kcat/Km [5]: 46900 M⁻¹ s⁻¹
